Data on eight molecules can be found in PMC6881253, “The PCNA interaction motifs revisited: thinking outside the PIP-box” (Cellular and Molecular Life Sciences: CMLS, 2019).

Conditions in all cases: both partners purified
Test [1] concerns the target T1, N-terminally His6-tagged human PCNA (proliferating cell nuclear antigen) (human, UniProt P12004 1-261).
T1 construct: Proliferating cell nuclear antigen, human; The tag is used for capture in SPR; source: E. coli BL21(DE3), purified (Ni-NTA, SEC)
The test is described as follows: ITC; ITC200; PCNA injected into the peptide; 10 mM HEPES, 150 mM NaCl, 1 mM EDTA, 1 mM TCEP, pH 7.4; 25 °C; single binding site model; triplicates.

The target of test [2] is T1, N-terminally His6-tagged human PCNA …. Nature of the test: SPR; Biacore T200, single-cycle; His6-PCNA captured by anti-His antibody coupled to a CM5 chip, peptides injected (five twofold dilutions); 10 mM HEPES, 150 mM NaCl, 0.05% P20, pH 7.4; 25 °C; kinetic fit for p21, steady-state fit for the other peptides.
For test [3] the target is unchanged. Nature of the test: ITC; ITC200; PCNA injected into the peptide; 10 mM HEPES, 150 mM NaCl, 1 mM EDTA, 1 mM TCEP, pH 7.4; 25 °C; single binding site model; triplicates. The source holds these as a separate data set. Background: In ITC the heat of successive injections is recorded.
Test [4] shares this target. The test is described as follows: SPR; Biacore T200, single-cycle; His6-PCNA captured by anti-His antibody coupled to a CM5 chip, peptides injected (five twofold dilutions); 10 mM HEPES, 150 mM NaCl, 0.05% P20, pH 7.4; 25 °C; kinetic fit for p21, steady-state fit for the other peptides. This is another data set of the same source.

T1 sequence (P12004 whole entry): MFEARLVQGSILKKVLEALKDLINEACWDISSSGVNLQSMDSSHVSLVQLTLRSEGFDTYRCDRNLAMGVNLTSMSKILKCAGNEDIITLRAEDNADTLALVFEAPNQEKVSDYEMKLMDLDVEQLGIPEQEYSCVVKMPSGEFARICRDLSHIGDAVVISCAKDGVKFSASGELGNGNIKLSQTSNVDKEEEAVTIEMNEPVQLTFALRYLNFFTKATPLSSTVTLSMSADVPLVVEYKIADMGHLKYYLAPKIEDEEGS

B1: p21^140–164 peptide (Ac-[residues removed]-NH2) (peptide)
peptide: RKRRQTSMTDFYHSKRRLIFSKRKP
modifications: N-terminally acetylated, C-terminally amidated
notes: called p21^140–163 in the results and the ITC methods; the name p21^140–163 is used elsewhere for the same peptide; also called p21^140–163; source: peptide, > 95% purity
One may read the Kd as a measure of binding affinity in units of concentration. A low value points to higher affinity. Molecule B1 registered a Kd in test [1] of 0.0064 µM.

B2: p21^143–157 peptide (Ac-RQTSMTDFYHSKRRL-NH2) (peptide)
peptide: Ac-RQTSMTDFYHSKRRL-NH2
notes: also called initial p21 peptide; p21 peptide; source: peptide, > 95% purity
Usually koff stands for a measure of how fast the partners let go of each other. Low readings indicate a long-lived complex, high ones a short-lived complex. What is called kon is the second-order rate constant of association. Lower therefore signals slower complex formation. Usually stoichiometry N stands for the number of molecules, sites or subunits per partner or assembly. In test [2], B2 yielded a Kd of 0.08 µM. In test [3], binding was characterised by a dissociation constant (Kd) of 0.067 µM and the dH was -230 kJ/mol. For the same molecule, in test [4], the koff stood at 0.14 ± 0.0003 s⁻¹, the kon turned out to be 1.7e+06 M⁻¹ s⁻¹ and the “stoichiometry N” value turned out to be 3 ligands per PCNA trimer.

B3: MSH6 peptide (Ac-RQSTLYSFFPKSPAL-NH2) (peptide)
peptide: Ac-RQSTLYSFFPKSPAL-NH2
notes: DNA mismatch repair protein MSH6, human, canonical PIP-box at the very N-terminus; source: peptide, > 95% purity
Turning to B3, the figures for the Kd in test [2] and in test [4] were 2.9 µM and 3 ± 0.05 µM, respectively.

B4: p21^140–157,Q144A (Ac-RKRRATSMTDFYHSKRRL-NH2) (peptide)
peptide: Ac-RKRRATSMTDFYHSKRRL-NH2
notes: also called p21 peptide variant with Q at the first position mutated to alanine; source: peptide, > 95% purity
In turn, B4 came in with a Kd in test [1] of 1.3 µM.

B5: p21^140–157 peptide (peptide)
peptide: Ac-RKRRQTSMTDFYHSKRRL-NH2
notes: also called extended peptide; source: peptide, > 95% purity
For B5, the Kd in test [1] was found to be 0.027 µM.

B6: synthetic peptide harboring an APIM (Ac-MDRWLVKW-NH2) (peptide)
peptide: Ac-MDRWLVKW-NH2
notes: also called APIM peptide; source: synthetic peptide, > 95% purity
In test [2], B6 had a Kd of 11 µM.

B7: FEN1 peptide (Ac-TQGRLDDFFKVTGSL-NH2) (peptide)
peptide: Ac-TQGRLDDFFKVTGSL-NH2
notes: Flap endonuclease 1 (FEN1), human, canonical PIP-box; source: peptide, > 95% purity
Consider B7, for which, in test [2], binding was characterised by a dissociation constant (Kd) of 45 µM.

B8: chimeric peptide comprising the Fen1 motif and the flanking regions of p21 (Ac-RKRRQGRLDDFFHSKRRL-NH2) (peptide)
peptide: Ac-RKRRQGRLDDFFHSKRRL-NH2
notes: PIP-box motif of flap endonuclease 1 (FEN1), human; also called p21 flanks grafted to Fen1; source: peptide, > 95% purity
With B8, in test [1], the Kd is 0.73 µM.
